The assay deals with ApPPO1. Kind of assay: Herbicide tolerance test of ApPPO1 wild type and variants in PPO-deficient E. coli BT3(ΔPPO), growth on herbicide-containing LB agar. In kind it is cell-based, Auxenochlorella protothecoides. The following applies: relative to ApPPO1 WT, dark; for Herbicide tolerance, flumioxazin: up to 100 μM (FIGS. 7-12); for Herbicide tolerance, tiafenacil: up to 200 μM (FIGS. 7-12); for Herbicide tolerance, sulfentrazone: up to 400 μM (FIGS. 7-12). The protocol:
Then, the extent of tolerance was evaluated.

B1: V213C + Y422T: ApPPO1 (SEQ ID NO: 1) variant (protein)
chain: MPFTHLKPLNRLLGSPRARHPHVAPQAVSVTNTSTTRPGGRSSAPGIPGDAEYDVVIVGAGISGLTTAQALAKQYSDAVPRLLVTEARDCVGGNIITRRDGGYQWEEGPNSFQPSDAVLRAAVDAGVADRLVLGDPKAPRYVYWGGRLRATPSGPDVLTFDLLSLWGKLRAGLGAAGFKAPLPEREESVKEFVTRNLGEEVFQRLIEPFCSGCYAGDPAKLSMKAAFGKVYDLEKGGGSIVGGVLALMKARKQKPPEPRPADLPPKPKGQTVGSFDKGLVTLPSAIAEELGDRVVTGWKLESIDRSGDRFQLTYDTPQGRKKVSARSVALTVPAYTAASLLESRFPKLGKALSSIYYPPVASVALSYPETAILPERLGSDGHLAGFGQLHPRTQGVTTLGTIYASSLFPGRVPEGKVLLLSTFGGATNTRVATMPHGEIVSQVDKDLRKMLIRSDAESPHTVNVTVWPRAIPQFNVGHTDLIQEAKDDLASQGWQGLHLGGNYVAGVALGKCMEAGYKQAAELASHVKSLAT
modifications: Synthetic (Protoporphyrinogen IX oxidase (ApPPO1) of Auxenochlorella protothecoides)
As to B1, the “Herbicide tolerance, flumioxazin” value is reported as “+++++ (more than 10,000 fold higher tolerance)”; the “Herbicide tolerance, tiafenacil” value is given as “+++++ (more than 10,000 fold higher tolerance)”; the “Herbicide tolerance, sulfentrazone” value is reported as “++++ (1,000-9,999 fold higher tolerance)”.

B2: A215L + Y422T: ApPPO1 (SEQ ID NO: 1) variant (protein)
chain: MPFTHLKPLNRLLGSPRARHPHVAPQAVSVTNTSTTRPGGRSSAPGIPGDAEYDVVIVGAGISGLTTAQALAKQYSDAVPRLLVTEARDCVGGNIITRRDGGYQWEEGPNSFQPSDAVLRAAVDAGVADRLVLGDPKAPRYVYWGGRLRATPSGPDVLTFDLLSLWGKLRAGLGAAGFKAPLPEREESVKEFVTRNLGEEVFQRLIEPFCSGVYLGDPAKLSMKAAFGKVYDLEKGGGSIVGGVLALMKARKQKPPEPRPADLPPKPKGQTVGSFDKGLVTLPSAIAEELGDRVVTGWKLESIDRSGDRFQLTYDTPQGRKKVSARSVALTVPAYTAASLLESRFPKLGKALSSIYYPPVASVALSYPETAILPERLGSDGHLAGFGQLHPRTQGVTTLGTIYASSLFPGRVPEGKVLLLSTFGGATNTRVATMPHGEIVSQVDKDLRKMLIRSDAESPHTVNVTVWPRAIPQFNVGHTDLIQEAKDDLASQGWQGLHLGGNYVAGVALGKCMEAGYKQAAELASHVKSLAT
modifications: Synthetic (Protoporphyrinogen IX oxidase (ApPPO1) of Auxenochlorella protothecoides)
Regarding B2, the “Herbicide tolerance, flumioxazin” value is recorded as “+ (1-9 fold higher tolerance)”; the “Herbicide tolerance, tiafenacil” value is “+ (1-9 fold higher tolerance)”; the “Herbicide tolerance, sulfentrazone” value is listed as “++++ (1,000-9,999 fold higher tolerance)”.

B3: A215C + Y422T: ApPPO1 (SEQ ID NO: 1) variant (protein)
chain: MPFTHLKPLNRLLGSPRARHPHVAPQAVSVTNTSTTRPGGRSSAPGIPGDAEYDVVIVGAGISGLTTAQALAKQYSDAVPRLLVTEARDCVGGNIITRRDGGYQWEEGPNSFQPSDAVLRAAVDAGVADRLVLGDPKAPRYVYWGGRLRATPSGPDVLTFDLLSLWGKLRAGLGAAGFKAPLPEREESVKEFVTRNLGEEVFQRLIEPFCSGVYCGDPAKLSMKAAFGKVYDLEKGGGSIVGGVLALMKARKQKPPEPRPADLPPKPKGQTVGSFDKGLVTLPSAIAEELGDRVVTGWKLESIDRSGDRFQLTYDTPQGRKKVSARSVALTVPAYTAASLLESRFPKLGKALSSIYYPPVASVALSYPETAILPERLGSDGHLAGFGQLHPRTQGVTTLGTIYASSLFPGRVPEGKVLLLSTFGGATNTRVATMPHGEIVSQVDKDLRKMLIRSDAESPHTVNVTVWPRAIPQFNVGHTDLIQEAKDDLASQGWQGLHLGGNYVAGVALGKCMEAGYKQAAELASHVKSLAT
modifications: Synthetic (Protoporphyrinogen IX oxidase (ApPPO1) of Auxenochlorella protothecoides)
For the molecule B3, the “Herbicide tolerance, flumioxazin” value was “+++ (100-999 fold higher tolerance)”; the “Herbicide tolerance, tiafenacil” value is listed as “+++ (100-999 fold higher tolerance)”; the “Herbicide tolerance, sulfentrazone” value was “+++ (100-999 fold higher tolerance)”.

B4: A215C + Y422I: ApPPO1 (SEQ ID NO: 1) variant (protein)
chain: MPFTHLKPLNRLLGSPRARHPHVAPQAVSVTNTSTTRPGGRSSAPGIPGDAEYDVVIVGAGISGLTTAQALAKQYSDAVPRLLVTEARDCVGGNIITRRDGGYQWEEGPNSFQPSDAVLRAAVDAGVADRLVLGDPKAPRYVYWGGRLRATPSGPDVLTFDLLSLWGKLRAGLGAAGFKAPLPEREESVKEFVTRNLGEEVFQRLIEPFCSGVYCGDPAKLSMKAAFGKVYDLEKGGGSIVGGVLALMKARKQKPPEPRPADLPPKPKGQTVGSFDKGLVTLPSAIAEELGDRVVTGWKLESIDRSGDRFQLTYDTPQGRKKVSARSVALTVPAYTAASLLESRFPKLGKALSSIYYPPVASVALSYPETAILPERLGSDGHLAGFGQLHPRTQGVTTLGTIYASSLFPGRVPEGKVLLLSIFGGATNTRVATMPHGEIVSQVDKDLRKMLIRSDAESPHTVNVTVWPRAIPQFNVGHTDLIQEAKDDLASQGWQGLHLGGNYVAGVALGKCMEAGYKQAAELASHVKSLAT
modifications: Synthetic (Protoporphyrinogen IX oxidase (ApPPO1) of Auxenochlorella protothecoides)
With B4, the “Herbicide tolerance, flumioxazin” value is on record as “+++++ (more than 10,000 fold higher tolerance)”; the “Herbicide tolerance, tiafenacil” value was “+++++ (more than 10,000 fold higher tolerance)”; the “Herbicide tolerance, sulfentrazone” value is on record as “++++ (1,000-9,999 fold higher tolerance)”.

B5: A215L + Y422I: ApPPO1 (SEQ ID NO: 1) variant (protein)
chain: MPFTHLKPLNRLLGSPRARHPHVAPQAVSVTNTSTTRPGGRSSAPGIPGDAEYDVVIVGAGISGLTTAQALAKQYSDAVPRLLVTEARDCVGGNIITRRDGGYQWEEGPNSFQPSDAVLRAAVDAGVADRLVLGDPKAPRYVYWGGRLRATPSGPDVLTFDLLSLWGKLRAGLGAAGFKAPLPEREESVKEFVTRNLGEEVFQRLIEPFCSGVYLGDPAKLSMKAAFGKVYDLEKGGGSIVGGVLALMKARKQKPPEPRPADLPPKPKGQTVGSFDKGLVTLPSAIAEELGDRVVTGWKLESIDRSGDRFQLTYDTPQGRKKVSARSVALTVPAYTAASLLESRFPKLGKALSSIYYPPVASVALSYPETAILPERLGSDGHLAGFGQLHPRTQGVTTLGTIYASSLFPGRVPEGKVLLLSIFGGATNTRVATMPHGEIVSQVDKDLRKMLIRSDAESPHTVNVTVWPRAIPQFNVGHTDLIQEAKDDLASQGWQGLHLGGNYVAGVALGKCMEAGYKQAAELASHVKSLAT
modifications: Synthetic (Protoporphyrinogen IX oxidase (ApPPO1) of Auxenochlorella protothecoides)
Regarding B5, the “Herbicide tolerance, flumioxazin” value is recorded as “++++ (1,000-9,999 fold higher tolerance)”; the “Herbicide tolerance, tiafenacil” value was “++++ (1,000-9,999 fold higher tolerance)”; the “Herbicide tolerance, sulfentrazone” value is given as “++++ (1,000-9,999 fold higher tolerance)”.

For the origin of these results see patent US20220042033A1, “COMPOSITION AND METHOD FOR CONFERRING AND/OR ENHANCING TOLERANCE AGAINST HERBICIDES BY USING VARIANTS OF PPO” (FarmHannong Co., Ltd., priority 2017, published 2022).
